# Measured values published in patent publication US20240059799A1 (Pfizer, published 2024).
# Substitutions are numbered along the chain they refer to.
# T1: recombinant human TL1A (human, UniProt O95150 71-251)
# T1 chain: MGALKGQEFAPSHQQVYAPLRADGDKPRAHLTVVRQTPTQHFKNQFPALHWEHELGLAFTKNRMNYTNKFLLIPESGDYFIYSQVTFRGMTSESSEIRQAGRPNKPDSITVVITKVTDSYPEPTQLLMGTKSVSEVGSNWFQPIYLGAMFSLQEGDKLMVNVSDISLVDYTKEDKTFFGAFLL
# T2: recombinant human TL1A (human, UniProt O95150 71-251)
# T2 construct: homotrimer; biotinylated for SPR capture; the ELISA paragraphs say only 'recombinant TL1A'; also called TNFSF15
# T2 chain: T1 chain
# B1: TL1A-0042 (antibody, human IgG1, kappa, V domains shown)
# VH: QVQLVQSGAEVKKPGASVKVSCKASGYDFTYYGISWVRQAPGQGLEWMGWISTYNGNTHYARMLQGRVTMTTDTSTRTAYMELRSLRSDDTAVYYCARENYYGSGAYRGGMDVWGQGTTVTVSS
# VL: DIQMTQSPSSLSASVGDRVTITCRASQSVSSYLAWYQQKPGKAPKLLIYDASNRATGVPSRFSGSGSGTDFTLTISSLQPEDFATYYCQQRSNWPWTFGQGTKVEIKR
# notes: parental heavy chain with IGKV1-39*01 light chain; human IgG1 effector-function-minimized/kappa
# B2: TL1A-0266 (antibody, human IgG1, kappa, V domains shown)
# VH: B1 VH with F29Y, G56T, R62P, M63S, R77S, N100S, Y107F
# VL: B1 VL
# notes: human IgG1 effector-function-minimized/kappa
# B3: TL1A-0288 (antibody, human IgG1, kappa, V domains shown)
# VH: B1 VH with I34V, G56T, N57G, R62P, M63S, R77S, N100S, Y107F
# VL: B1 VL
# notes: human IgG1 effector-function-minimized/kappa; 96 used
# B4: TL1A-0261 (antibody, human IgG1, kappa, V domains shown)
# VH: B1 VH with F29Y, G56T, N57G, R62P, M63S, R77S, N100S, Y107H
# VL: B1 VL
# notes: as for B2
# B5: TL1A-0280 (antibody, human IgG1, kappa, V domains shown)
# VH: B1 VH with T30S, G56T, R62P, M63S, R77S, N100S, Y107F
# VL: B1 VL
# notes: as for B2
# B6: TL1A-0275 (antibody, human IgG1, kappa, V domains shown)
# VH: B1 VH with T30S, G56T, N57G, R62P, M63S, R77S, N100S, Y107H
# VL: B1 VL
# notes: as for B2
# B7: TL1A-0265 (antibody, human IgG1, kappa, V domains shown)
# VH: B1 VH with F29Y, G56T, N57V, R62P, M63S, R77S, N100S, Y107H
# VL: B1 VL
# notes: as for B2
# B8: TL1A-0289 (antibody, human IgG1, kappa, V domains shown)
# VH: B1 VH with I34V, G56T, N57G, R62P, M63S, R77S, N100S, Y107H
# VL: B1 VL
# notes: as for B2
# B9: TL1A-0292 (antibody, human IgG1, kappa, V domains shown)
# VH: B1 VH with I34V, G56T, N57V, R62P, M63S, R77S, N100S, Y107F
# VL: B1 VL
# notes: as for B2
# B10: TL1A-0263 (antibody, human IgG1, kappa, V domains shown)
# VH: B1 VH with F29Y, G56T, N57G, R62Q, M63K, R77S, N100S, Y107H
# VL: B1 VL
# notes: as for B2
# B11: TL1A-0294 (antibody, human IgG1, kappa, V domains shown)
# VH: B1 VH with I34V, G56T, R62P, M63S, R77S, N100S, Y107F
# VL: B1 VL
# notes: as for B2
# B12: TL1A-0303 (antibody, human IgG1, kappa, V domains shown)
# VH: B1 VH with S35G, G56T, N57G, R62P, M63S, R77S, N100S, Y107H
# VL: B1 VL
# notes: as for B2
# B13: TL1A-0262 (antibody, human IgG1, kappa, V domains shown)
# VH: B1 VH with F29Y, G56T, N57G, R62Q, M63K, R77S, N100S, Y107F
# VL: B1 VL
# notes: as for B2
# B14: TL1A-0264 (antibody, human IgG1, kappa, V domains shown)
# VH: B1 VH with F29Y, G56T, N57V, R62P, M63S, R77S, N100S, Y107F
# VL: B1 VL
# notes: as for B2
# B15: TL1A-0274 (antibody, human IgG1, kappa, V domains shown)
# VH: B1 VH with T30S, G56T, N57G, R62P, M63S, R77S, N100S, Y107F
# VL: B1 VL
# notes: as for B2
# B16: TL1A-0285 (antibody, human IgG1, kappa, V domains shown)
# VH: B1 VH with I34V, G56D, R62P, M63S, R77S, N100S, Y107H
# VL: B1 VL
# notes: as for B2
# B17: TL1A-0278 (antibody, human IgG1, kappa, V domains shown)
# VH: B1 VH with T30S, G56T, N57V, R62P, M63S, R77S, N100S, Y107F
# VL: B1 VL
# notes: as for B2
# B18: TL1A-0267 (antibody, human IgG1, kappa, V domains shown)
# VH: B1 VH with F29Y, G56T, R62P, M63S, R77S, N100S, Y107H
# VL: B1 VL
# notes: as for B2
# B19: TL1A-0287 (antibody, human IgG1, kappa, V domains shown)
# VH: B1 VH with I34V, G56D, R62Q, M63K, R77S, N100S, Y107H
# VL: B1 VL
# notes: as for B2
# B20: TL1A-0293 (antibody, human IgG1, kappa, V domains shown)
# VH: B1 VH with I34V, G56T, N57V, R62P, M63S, R77S, N100S, Y107H
# VL: B1 VL
# notes: as for B2
# B21: TL1A-0025 (antibody, V domains shown)
# VH: B1 VH with T58D, R62D, M63S
# VL: EIVLTQSPATLSLSPGERATLSCRASQSVSSYLAWYQQKPGQAPRLLIYDASNRATGIPARFSGSGSGTDFTLTISSLEPEDFAVYYCQQRSNWPWTFGQGTKVEIKR
# B22: TL1A-0197 (antibody, IgG1, V domains shown)
# VH: B1 VH with N100S, Y107F
# VL: B21 VL
# notes: IgG1/kappa variant of TL1A-0002
# B23: TL1A-0250 (antibody, IgG1, V domains shown)
# VH: B1 VH with G56T, N57V, R62P, M63S, R77S, N100S, Y107F
# VL: B1 VL
# notes: IgG1/kappa
# Molecular target: T1, recombinant human TL1A
# Assay: cell-based or functional assay
TF-1 NF-κB reporter cell bioassay IC50 [nM],"TF-1 NF-κB reporter cell bioassay, Bioactivity relative to TL1A-0002 [fold]",Whole blood IFNγ assay IC50 [nM],"Whole blood IFNγ assay, Bioactivity relative to TL1A-0002 [fold]",Binder
25.9,0.7,0.748,0.9,B1
37,1.1,0.745,0.9,B2
96,2.8,,,B3
29.5,0.8,0.923,1.1,B4
,,0.914,1.1,B5
24.7,0.7,,,B6
45.1,1.3,1.01,1.2,B7
,,0.799,1,B8
77.9,2.2,0.95,1.1,B9
40.4,1.2,0.932,1.1,B10
56.5,1.6,0.942,1.1,B11
49.4,1.4,1.23,1.5,B12
43.9,1.3,1.03,1.2,B13
30,0.9,1.06,1.3,B14
19.1,0.6,,,B15
,,0.955,1.2,B16
,,0.82,1,B17
42.2,1.2,0.94,1.1,B18
,,0.993,1.2,B19
,,0.986,1.2,B20

# Molecular target: T2, recombinant human TL1A
# Assay: competition ELISA vs bio-TL1A-0002
Bioactivity relative to TL1A-0002 [fold],IC50 [nM],fold reduction of TL1A binding properties compared to TL1A-0002 [fold],Binder
1.6,7.2,,B21
1.9,8.7,,B22
,,> 300,B23

# Molecular target: T1, recombinant human TL1A
# Assay: competition ELISA, coated TL1A, competitor bio-TL1A-0002
# Protocol: For this competition ELISA assay procedure, 96-well high binding plates (Corning, product number 3590) were coated with 1 μg/mL recombinant TL1A in 100 μL/well in Phospate Buffered Saline (PBS) overnight at 4° C. Plates were then blocked in PBS+0.02% casein solution and washed with PBS+0.05% Tween-20 following standard ELISA protocol. […] Plates were washed with PBS+0.05% Tween-20 following standard ELISA protocol, and Streptavidin-HRP (Southern Biotech, product number 7100-05) diluted to 1:10,000 in assay buffer was added to plates and incubated for 25-30 minutes at room temperature. Next, the plates were washed with PBS+0.05% Tween-20 following standard ELISA protocol, and then TMB substrate (BioFX Laboratories, catalog number TMBW-0100-01) was added to plates. Reactions were stopped after approximately 5 minutes by adding 0.18 M ortho-phosphoric acid to each well and absorbance was read at 450 nm.
Bioactivity relative to TL1A-0002 [fold],IC50 [nM],Binder
0.8,4.2,B1
1.3,6.6,B2
1.6,8,B3
1.1,5.6,B4
1.6,8.2,B5
1.8,9,B6
1.7,8.7,B7
1.6,7.9,B8
1.9,9.6,B9
1.2,6.2,B10
1.6,8,B11
3,15,B12
1.4,7.3,B13
3.1,15.8,B14
2,10.1,B15
1.7,8.6,B16
1.8,9.1,B17
1.3,6.8,B18
2,10.1,B19
1.9,9.7,B20
